From patent US20080193453A1

Columns and labels:
[1] = target: transferrin receptor (TfR, CD71) on cells (human) (UniProt P02786); test: cell-based or functional assay
[2] = target: Recombinant (His)6-tagged TfR1 ectodomain (human) (UniProt P02786); test: SPR (Biacore 2000), K'd, TfR-(His)6 captured at low density (120 RU) on anti-(His)6 chip
[3] = target: Recombinant (His)6-tagged TfR1 ectodomain (human) (UniProt P02786); test: SPR (Biacore 2000), K'd, TfR-(His)6 captured at high density (1650 RU) on anti-(His)6 chip

Chain of Recombinant (His)6-tagged TfR1 ectodomain (human) (P02786 89-760 limits assumed, form in doubt): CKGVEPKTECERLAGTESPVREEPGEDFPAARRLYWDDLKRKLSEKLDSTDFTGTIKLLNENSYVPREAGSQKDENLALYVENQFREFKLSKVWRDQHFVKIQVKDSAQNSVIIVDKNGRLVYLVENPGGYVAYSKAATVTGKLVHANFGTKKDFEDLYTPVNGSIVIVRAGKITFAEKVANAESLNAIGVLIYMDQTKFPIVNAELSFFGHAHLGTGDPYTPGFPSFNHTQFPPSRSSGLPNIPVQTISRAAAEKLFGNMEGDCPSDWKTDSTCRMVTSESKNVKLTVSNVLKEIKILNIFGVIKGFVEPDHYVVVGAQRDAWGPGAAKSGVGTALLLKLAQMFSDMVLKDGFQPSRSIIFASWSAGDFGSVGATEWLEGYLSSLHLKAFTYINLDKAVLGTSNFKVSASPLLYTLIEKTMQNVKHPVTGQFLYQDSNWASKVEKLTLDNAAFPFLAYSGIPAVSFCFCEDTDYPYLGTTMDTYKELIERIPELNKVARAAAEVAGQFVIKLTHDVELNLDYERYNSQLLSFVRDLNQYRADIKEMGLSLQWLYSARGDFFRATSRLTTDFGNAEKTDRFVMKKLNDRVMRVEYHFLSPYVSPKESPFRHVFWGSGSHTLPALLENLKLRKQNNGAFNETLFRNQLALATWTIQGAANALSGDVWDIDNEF
Chain of transferrin receptor (TfR, CD71) on cells (human) (P02786 whole entry, the tested form may be a part): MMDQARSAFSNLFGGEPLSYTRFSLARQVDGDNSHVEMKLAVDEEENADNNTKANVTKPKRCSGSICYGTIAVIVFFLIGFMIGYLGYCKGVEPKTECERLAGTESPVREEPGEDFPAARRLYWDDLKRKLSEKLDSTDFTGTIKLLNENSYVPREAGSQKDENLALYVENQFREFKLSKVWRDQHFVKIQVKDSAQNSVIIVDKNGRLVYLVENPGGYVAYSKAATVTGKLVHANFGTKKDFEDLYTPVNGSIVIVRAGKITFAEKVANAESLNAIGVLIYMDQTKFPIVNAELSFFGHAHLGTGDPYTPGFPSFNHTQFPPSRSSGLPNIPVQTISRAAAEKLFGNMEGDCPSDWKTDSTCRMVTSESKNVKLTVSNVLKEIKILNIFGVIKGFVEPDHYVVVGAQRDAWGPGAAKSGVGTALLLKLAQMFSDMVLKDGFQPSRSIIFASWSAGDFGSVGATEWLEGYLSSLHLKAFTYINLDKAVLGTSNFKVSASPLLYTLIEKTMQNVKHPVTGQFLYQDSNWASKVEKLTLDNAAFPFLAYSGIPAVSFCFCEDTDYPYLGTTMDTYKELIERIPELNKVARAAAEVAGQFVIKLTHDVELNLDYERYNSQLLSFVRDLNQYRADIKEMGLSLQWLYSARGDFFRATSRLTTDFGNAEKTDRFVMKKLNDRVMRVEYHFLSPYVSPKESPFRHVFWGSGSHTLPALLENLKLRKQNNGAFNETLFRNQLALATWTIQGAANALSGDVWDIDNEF

In the case of “anti-human TfR (CD71) monoclonal antibody A24”, the down-regulation of TfR expression in ex vivo cell cultures from chronic and acute forms of ATL [1] is reported as greater than 75%, the down-regulation of TfR expression on HTLV-1 infected cells from acute ATL donors in IL-15 or IL-2/IL-15 conditioned medium [1] is reported as greater than 65% and the Kd [2] is reported as 2.69 nM. It also gave a Kd [3] of 1.02 nM.
